These results are taken from a protein production outcome set (Wang et al. 2014).

This data set is described as follows: label from the status in PepcDB records.
Regarding “MKQNQYLFLLFTLIVLTGCGGTQKKLTEYVNPFLGTATLWEPEDLGYTRKIKSRTWGAETYPGATLPNAMVQLSPVTQFRSGAGYQYEDTVIYGFSHTAKGHWNLLHVPMLPVVGTIAPGNYCSGFSHEKESAHPGYYQVYLERYKVNAELTSTLRCAYHKYTFAKGDDKSLLVDIRRSNNDVRDWKIEKVDDNTFTGYQDGDGKIYFYAKTNYKIGQVEMVKDDKHEVAVLRFIDSKGVEPLEVKAGFSFVSIENAQMNLKAEMLNKSFAQVAEEADAAWEALLSKIQVAGGTEREKRLFYSTFFHAFKWPALRSDVNHEYTDVRGEVVNNGFHYYTDPSFWDDYRNKLVLIGMISPDVTTDIIRSIIDKGEKRDGYMPTFFHGDHASTFISGSWLRGLHDFDLERAYKLILKNATVPGKGGRRYLDEYMERGWIAEKDTVNVPTWDEYKGAVTKTQEYAYDDYAVALVAKELGDEANYKLMMERSNNYKTLFDPSTGFWRGKIDDGSWIQDFDPYYPYYQYMYREANAWNALFFAPHDPEGMIKLYPSKEAVEAKLDSLFSEPWRGYEAHNLTGFIGNYCHGNQPGHSIPYTYYFIDKQEKAQCILDSLMNHYYDMGADKLAYAGMDDAGEMSSWYVLNAIGLYTYSPADPEYIVTVPLFDKVTFNLNGRPFTIVKKGSGKKIIDITYDGKKIDGYFITHDQLREGKELVITTE”, the protein production entry is given as “failed”.

With “MAPQPVIRSKQAEKTINGNQTQVVCTEFSNYIFIVLTQYGKIGTLVSITPDTRSGDISVPMYTSKVLLGKDEPLTHVYAKNVATFVSQESGNRPILLGLSLKDNSAETMKTVKDMIKSCQVW”, the protein production entry was “failed”.

As to “TDINSLRTRLRSGEHAFADTLAFIADGYDYQPQPFRNGDVDNAAGQNEGSCKTLGLALLEGLSDEEALLAFGEHYRSVQATPEGSDHGNIRALIKHGLAGVTFEGEPLKRK”, the protein production result was “not failed”.

“MLNNKRLFTSESVTEGHPDKIADQVSDAILDAILKDDPNARVACETTVTTGMALIAGEISTTTYVDIPKVVRETIKEIGYTRAKYGYDYETMAILTAIDEQSPDIAQGVDKALEYRDKDSEEEIEATGAGDQGLMFGYATNETETYMPLAIYLSHQLAKRLSDVRKDGTLNYLRPDGKVQVTVEYDENDNPVRIDTIVVSTQHAEDVTLEQIQEDIKAHVIYPTVPENLINEQTKFYINPTGRFVIGGPQGDAGLTGRKIIVDTYGGYARHGGGCFSGKDPTKVDRSAAYAARYVAKNIVAAGLADQCEVQLAYAIGVAEPVSIAIDTFGTGKVSEGQLVEAVRKHFDLRPAGIIKMLDLKQPIYKQTAAYGHFGRTDVLFPWEKLDKVEELKDAVK”: the protein production result is on record as “failed”.

“MWKRLLIVSAVSAAMSSMALAAPLTVGFSQVGSESGWRAAETNVAKSEAEKRGITLKIADGQQKQENQIKAVRSFVAQGVDAIFIAPVVATGWEPVLKEAKDAEIPVFLLDRSIDVKDKSLYMTTVTADNILEGKLIGDWLVKEVNGKPCNVVELQGTVGASVAIDRKKGFAEAIKNAPNIKIIRSQSGDFTRSKGKEVMESFIKAENNGKNICMVYAHNDDMVIGAIQAIKEAGLKPGKDILTGSIDGVPDIYKAMMDGEANASVELTPNMAGPAFDALEKYKKDGTMPEKLTLTKSTLYLPDTAKEELEKKKNMGY”: the protein production result was “failed”.

For “MTRPMPESIDERIKAALSKRGIDELYTHQYSAFQYVQKGESIVTVTPTASGKTLCYNLPVLQSIAQDETNRALYLFPTKALAQDQKSELNEIIDEMGIDIKSFTYDGDTSPAIRQKVRKAGHIVITNPDMLHSAILPHHTKWVSLFENLKYIVIDELHTYRGVFGSHVANVIRRLKRICRFYGSDPVFICTSATIANPKELGEQLTGKPMRLVDDNGAPSGRKHFVFYNPPIVNKPLNIRRSATAEVNELAKEFLKNKVQTIVFARSRVRVEIILSHIQELVKKEIGTKSIRGYRGGYLPKERREIERGLREGDILGVVSTNALELGVDIGQLQVCVMTGYPGSVASAWQQAGRAGRRHGESLIIMVANSTPIDQYIVRHPEYFFNRSPESARINPENLIILVDHLKCAAYELPFRADEEFGAMEVSDILEYLQEEAVLHRNGERYHWASESFPASNISLRSASQENVVIVDQSDIANVRIIGEMDRFSAMTLLHDEAIYLHEGVQYQVEKLDWDHKKAYVRKVDVEYYTDANLAVQLKVLEIDKTKEKSRTSLHYGDVTVNALPTIFKKIKMTTFENIGSGPIHLPEEELHTSAAWLEIKTADEDIGEKTLEQLLLGISNVLQHIVPVYIMCDRNDVHVVSQIKAAHTGLPTIFLYDHYPGGIGLAEEVFKRFSDINEAAKQLITHCPCHDGCPSCIGTEIEGIKAKERILQLLDQMSLEHHHHHH”, the protein production entry is recorded as “not failed”.

Consider “KREHAKQHGMIRTEITGAEIAEEMEKERRLFQLQMCEYLIKVNEIKTKKGVDLLQNLIKYYHAQCNFFQDGLKTADKLKQYIEKLAADLYNIKQTQDEEKKQLTALRDLIKSSLQLDQKESRRDSQSRQGGYSMHQLQGNKEYGSEKKGYLLKKSDGIRKVWQRRKCSVKNGILTISHATSNRQPAKLNLLTCQVKPNAEDKKSFDLISHNRTYHFQAEDEQDYVAWISVLTNSKEEALTMAFRGEQSAGENSLEDLTKAIIEDVQRLPGNDICCDCGSSEPTWLSTNLGILTCIECSGIHREMGVHISRIQSLELDKLGTSELLLAKNVGNNSFNDIMEANLPSPSPKPTPSSDMTVRKEYITAKYVDHRFSRKTCSTSSAKLNELLEAIKSRDLLALIQVYAEGVELMEPLLEPGQELGETALHLAVRTADQTSLHLVDFLVQNCGNLDKQTALGNTVLHYCSMYSKPECLKLLLRSKPTVDIVNQAGETALDIAKRLKATQCEDLLSQAKSGKFNPHVHVEYEWNLRQEEIDESDDDLDDKPSPIKKERSPRPQSFCHSSSISPQDKLALPGFSTPRDKQRLSYGAFTNQIFVSTSTDSPTSPTTEAPPLPPRNAGKGPTGPPSTLPLSTQTSSGSSTLSKKRPPPPPPGHKRTLSDPPSPLPHGPPNKGAVPWGNDGGPSSSSKTTNKFEGLSQQSSTSSAKTALGPRVLPKLPQKVALRKTDHLSLDKATIPPEIFQKSSQLAELPQKPPPGDLPPKPTELAPKPQIGDLPPKPGELPPKPQLGDLPPKPQLSDLPPKPQMKDLPPKPQLGDLLAKSQTGDVSPKAQQPSEVTLKSHPLDLSPNVQSRDAIQKQASEDSNDLTPTLPETPVPLPRKINTGKNKVRRVKTIYDCQADNDDELTFIEGEVIIVTGEEDQEWWIGHIEGQPERKGVFPVSFVHILSD”, for which the protein production result is given as “not failed”.

Regarding “MEEELQHSHCVNCVSRRCMTRPEPGISCDLIGCPLVCGAVFHSCKADEHRLLCPFERVPCLNSDFGCPFTMARNKVAEHLEMCPASV”, the protein production result is on record as “not failed”.

With “MFFEIALIGTTASGKTYIANTLAREFNAVVLSLDSLCVYKEINIASAKPSQDDLASIKYFGVNLLSVNEHFNVELFIREYQKAKEFALARNLPLIIVGGTGFYLKTMIDGLSEKTLESKSSLNNDEIYALLLNIDPNYKIEKNDTYRLKKWLGIYEQTREIPSEFLKRTQKTGVLKDIEIYELAWDKEILKKRIKTRTKEMLDNGLLDEAKILFSKFDHKLKALNSIGLKECKEYLDGEISFKELENLITIHTTQLAKRQRTFNKKFQSKALEFDKALATLRMKFSIEKLEHHHHHH”, the protein production entry is recorded as “failed”.

For “MAPLQTPLCSEIGIDHPVVQAPVGSVSTPSLAAAVADAGGLGMLAMSWREADAIRDAYTDAANATDGVVGVNVVLDESTGVLSPSACLDACLDAGAPVVSFSFGDAGPYIDRVHEVGGTVMVTVASAAEARAAVDAGADVVVAQGREAGGHVQSDVTTMSLLPRVADGVPVPVVAAGGLGDGRGLAAALTLDADGGWFGTRFVATEESGAHEAYRQQIVDAPETATRFTDLFDRGWPDQPHRVLETDEVRQQAGADSGGESDGSDPEQIAQMPDGEPISRFADMPPLAGMTGDVEALPHYAGQSTGLAQDVRPAGEVVARLVSDARAALADASAAAE”, the protein production entry is recorded as “failed”.

On to “MQPTSITVASYNLRNANGGDSINGNGWGQRYPVIAQIVQYHDFDIFGTQECFIHQLKDMKEALPGYDYIGVGRDDGKEKGEHSAIFYRTDKFDVIEKGDFWLSETPDVPSKGWDAVLPRICSWGHFKCKDTGFEFLFFNLHMDHIGKKARVESAFLVQDKMKELGKGKELPAILTGDFNVDQTHQSYDAFVSKGVLCDSYEKAGFRYAINGTFNDFDPNSFTESRIDHIFVSPSFQVKRYGVLTDTYRSIVGKGEKKQANDCPEEIDIKTYQARTPSDHFPVKVELEFDQRQQKLEHHHHHH”, for which the protein production entry is reported as “not failed”.

As to “MRTLILAAALALAPLSAAAQDRAQTLADIKAEIAALQGQFNDLKRELVSTGAATSGAAGGSALQRMDAMEAAIAQVTAKAESLELKINRVVSDGSNRVGDLEFRVCELEEGCDIGAIGETKPLGGEASAAPAPTPAPAPAADPAGTFAVNEKADFDRAQEVLGQGDFRTAADLFKTFAETYTGGQLTYEAHYLRGEALSRLGETANAARAYLESFSGDPDGPRAPEALLKLGRALGDLRQTPEACVTLAEVGTRFPGSPSAAEAATTMQGLGCS”, the protein production result was “failed”.

Take “MKKEKKDYYEILGVPRDATQEEIKRAYKRLVKEWHPDRHPENRKEAEQRFKEIQEAYEVLSDPQKRAMYDRFGYVGEQPTYQETESGGFFDDIFRDFENIFNRDIFDVFFGERPHQEERREYARRGEDIRYEIEVTLSDLINGAEIPVEYERYETCPRCGGTGVEPNAGYMDCPSCGGTGRIREERRSFFGYFVSERTCERCGGTGKIPREYCHECGGSGRVLRKVRRTVKIPPNVEDGTHLRITGGGNAGYYGGPYGDLIIIVRVKPDPRFKKSGSDLVYDVTIDYLQAILGTTVEVPLPEGGTTMLKIPPGTQPETVFRLKGKGLPNRYGRRGDLIVNVHVEIPKSLSREERKVLEELAKKRGVTIG”: the protein production result is given as “failed”.

On to “MKCYLTGCIAGPLAFSEDLELIDYEPFPVDEIPGRLAESQMGGVSPEERIMLERLTPEYDEVVVEASPSPEYAGFRNLRFEVPSRAGIHLRENLEDILAEILDMPAGDFIHDALMSVARERLRESLRETDRFIIQSINALDELDEETGKLIERLREWYSLHFPELDGIKSHEQYVELIAEYGDRDQILKNFRMDVDESLGSDITSEDLHILRGLAESIRGLQRLREETERYIDIKMEKLAPNLRALAGSNVGARLIAHAGGLRELAMLPSSTIQVLGAEKALFRHLKSGAKPPKHGVIFQHPSIRSSPWWIRGKVARLLAGKIAIAVRKDVFSREFDPGIVESFNERFEAIKSNNPKPPARKKGFRKKRK”, for which the protein production result was “failed”.

On to “MTKIPMFELEEAIDRQPLTVAPTLPVAQVLAVMERQHSSYVLLMESNQTLVGIFTERDLVRLTAIGITITSTPIEEVATSTVTTIQESDIYDVIRTLNLFRQYNVRHLPVVNATHQLIGIMTYEGIRRLLKPIDLLRLWRVSEVMVKSIICADRYQSALSLAELMSDRLISCVVITEKDPSGFPKPIGLVTERDILHLQVQGADLSQTIAADFMGSPPVFIQASDTLWQANQYMRARKIRRLLVVDERNIMVGLLTQTSLIHMIDPVEATLTIETLQQMVGERTVALDAANEKLERKALERKRAKAALQQQIYRERLVNRTAQRIRESLQLDEILVTTVSEVRQFLKAERVLIYRFQPNQQGAIAAESTDSNQTLIQGNAELEAILQEIDPTFYSCDRIHSIPDLQAQGLELTNATLLKRLQLRASLVAPIFAQEILWGLLIVGQNSQPRRWEKLEIDLLKQLATQVGIAIQQARLYAQLAAANQQLLRLAQSDGLTGLANRRHFDQCLDIEWQRAIREQHPLGLILIDIDCFKQFNDTYGHQAGDDCLKAVATALTQVIARPADLVARYGGEEFVVILPNTNEQGILQIAESMRSAVQQLKIPHRSSSVCSSVSLSLGAVTWVPTPHKSPEALIGAADQALYQAKELGRNRVCLGGVRLLETT”, for which the protein production result is “failed”.

As for “MSRQQARGALGRAWWLQLALALLPLILVEFFLGELQPLPHGLAMPLFIAALLSMFVNLPLFGAYKRGLIATQKALDTAEEAAAWTRLAQVRRKALFGASLPAWIGVPGVFAGLNGVALILLGVTSLVLFWLYRIPRQLG”, the protein production entry is “failed”.
